Source: patent publication US8263074B2, “Fibroblast growth factor receptor-1 inhibitors and methods of treatment thereof” (ImClone LLC, priority 2003, dated 2012)

What was measured:
[1] = molecular target: T1, FGFR-2c (Homo sapiens, UniProt P21802); assay: BiaCore binding kinetics; details: BiaCore kinetic analysis
T1 construct: purchased R&D Systems

[2] = Body weight, food intake and adipose tissue in db/db mice; type: in vivo; details: 4 mg/kg s.c.
Method: The db/db 7 week old mice were injected subcutaneously with 4 mg/kg antibody on a Monday, Wednesday, and Friday schedule with body weights being measured before each injection and on day 7. Food intake was monitored as well on days 1, 2, 3, 4, and 7. The db/db animals were sacrificed on day 7 and their intrascapular brown fat, epididymal white adipose tissue, and inguinal subcutaneous white adipose tissue were sampled and weighed.

[3] = molecular target: T2, FGFR-3b (Homo sapiens, UniProt P22607); assay: BiaCore binding kinetics; details: BiaCore kinetic analysis
T2 construct: purchased R&D Systems

[4] = molecular target: T3, FGFR-1 (Homo sapiens, UniProt P11362); assay: Phosphorylation assay in FGFR-1 expressing L6 cells (western blot); type: cell-based; details: anti-phospho-tyrosine western blot
T3 construct: expressed in transfected cells; host or cells: L6 (ATCC), pBABE retroviral vector
Method: FGFR-1 expressing L6 cells were cultured in 10% FBS, DMEM, in a 24-well tissue culture plate till confluency. Cells were Serum starved in 5 μg/ml heparin, 0.1% FBS, DMEM, for 8-24 hrs. Either FR1-H7 or FR1-A1 was added to the media and allowed to bind with the cell surface receptors at 37° C. for 1 hr. Cells were then stimulated with 20 ng/ml FGFs at 37° C. for 10 min before they were lyzed using ice-cold lysis buffer for 30 min. Cell lysate was subjected to SDS-PAGE followed by western blot. Membranes were probed with anti-phospho-tyrosine antibody (Cell Signaling Technology, Inc., Beverly, Mass.) for detection of phosphorylated FGFR-1 receptors according to supplier's instructions.
The phosphorylation assay for small molecules is essentially the same as the phosphorylation assay described in Examples 7 and 15 and Phosphorylation Assay, except that small molecule compounds was used instead of FGFR-1 antibodies in all occasions. […] Equal amount of cell lysates were applied to each sample lane. Receptor auto-phosphorylation was probed using anti-phospho-tyrosine antibody as described in the original patent.

[5] = Body weight in C57 black mice; type: in vivo; details: after 4 treatments
Method: The antibodies weight-reducing effects on other strains of mice, C57 black mice and db/db mice were tested (The Jackson Laboratory, Bar Harbor, Me.). The C57 mice were injected with 0.8 mg/kg, 4 mg/kg, and 40 mg/kg antibody and saline on a Monday, Wednesday, Friday, and following Monday rotation schedule with body weights being measured before each injection and on day 9.

[6] = Energy expenditure and body composition in C57 black mice (incl. paired-feeding); type: in vivo
Method: To elucidate the mechanism of the weight-loss induced by FGFR antagonistic antibodies, the effect of FR1-H7 on energy expenditure and body composition of mice was studied. […] A paired-feeding experiment was also conducted which food consumption of control antibody treated animals was restrained to exact that of FR1-H7 treated animals (FIG. 27). […] Moreover, body composition (Day 1 and 5) and energy consumption determined for the two groups were mostly indistinguishable.
This study consisted of two stages. In the first stage, female C57 black mice (Charles River Laboratories, Wilmington, Mass.) were randomized into two groups (n=16) and individually housed in a metabolic cage. Both groups of Mice were given hi-carbohydrate content chow and water ad libitum. […] Body composition was determined using NMR on Day 1 and Day 5. Body weight and food consumption were determined daily. Energy expenditure, ambulatory activities, and oxygen consumption and were monitored continuously. RER were calculated based on energy expenditure and oxygen consumption.
In the second stage, both groups of Mice were given water ad libitum, but only 2 g of hi-carbohydrate content chow each animal per day. The amount of food given was determined in the first stage experiment to be the averaged daily food assumption of those animals one day after being treated with FR1-H7 (10 mg/kg body weight, intraperitonaeally). […]

[7] = molecular target: T4, FGFR-2b (Homo sapiens, UniProt P21802); assay: BiaCore binding kinetics; details: BiaCore kinetic analysis
T4 construct: purchased R&D Systems

[8] = molecular target: T5, FGFR-1(IIIc) (Homo sapiens, UniProt P11362); assay: ELISA binding assay; set-up: purchased R&D Systems
Method: Recombinant FGFRs (R&D systems) at a concentration of 1 μg/ml in PBS were coated on 96-well plates at room temperature for 2 hrs. The plates were washed 3 times with 0.2% Tween20/PBS, and blocked with 5% milk/PBS for 2 hrs before use. FR1-H7 or FR1-A1 was added to the plate and serially diluted in 0.2% Tween20/PBS. The plate was incubated at room temperature for 2 more hrs. The captured antibodies were detected using an anti-human light chain monoclonal antibody conjugated with […] (Pierce Biotechnology, Rockford, Ill.) solution prepared according to supplier's instructions.

[9] = molecular target: T5, FGFR-1(IIIc); assay: Cell-based blocking assay (125I-FGF-2 binding to FGFR-1(IIIc) expressing L6 cells); set-up: expressed in transfected cells; host or cells: L6 (ATCC), pBABE retroviral vector; details: at 200 nM antibody
Method: An FGFR-1(IIIc) expressing cell line was constructed by retro-viral transfecting L6 (ATCC, Manassas, Va.) using a pBABE vector that has a puromycin resistant gene (Invitrogen). Transfected cells were cultured in 10% FBS, DMEM (Invitrogen) in 6-well tissue culture plates until reaching confluency, Before the blocking experiment, cells were serum starved for 8-24 hrs at 37° C. in DMEM medium that contains 0.1% FBS and 5 μg/ml heparin. Before the addition of any reagents, plates were put on ice for 1 hr to minimize receptor internalization. For binding experiment, iodinated recombinant FGF-2 was added at various concentrations to the wells of the plates. For blocking experiments, serially diluted FR1-H7 antibody was added and incubated with the cells on ice for 1 hr before iodinated recombinant FGF-2 was added to each well to a final concentration of 15 ng/ml. Binding was for 1 hr at 0-4° C., after which time the solutions were aspirated and the plates were washed 5 times with ice-cold PBS. Cells were lyzed with 0.5 ml ice-cold cell lysis buffer for 30 minutes. Radioactivity of the cell lysates was detected using a Wizard 1470 automatic gamma counter (Turku, Finland). Non-specific interaction was determined in a binding experiment in which iodinated FGF-2 was incubated with the cells in presence of 200 fold excess of cold ligand.

T5 sequence (P11362 22-822): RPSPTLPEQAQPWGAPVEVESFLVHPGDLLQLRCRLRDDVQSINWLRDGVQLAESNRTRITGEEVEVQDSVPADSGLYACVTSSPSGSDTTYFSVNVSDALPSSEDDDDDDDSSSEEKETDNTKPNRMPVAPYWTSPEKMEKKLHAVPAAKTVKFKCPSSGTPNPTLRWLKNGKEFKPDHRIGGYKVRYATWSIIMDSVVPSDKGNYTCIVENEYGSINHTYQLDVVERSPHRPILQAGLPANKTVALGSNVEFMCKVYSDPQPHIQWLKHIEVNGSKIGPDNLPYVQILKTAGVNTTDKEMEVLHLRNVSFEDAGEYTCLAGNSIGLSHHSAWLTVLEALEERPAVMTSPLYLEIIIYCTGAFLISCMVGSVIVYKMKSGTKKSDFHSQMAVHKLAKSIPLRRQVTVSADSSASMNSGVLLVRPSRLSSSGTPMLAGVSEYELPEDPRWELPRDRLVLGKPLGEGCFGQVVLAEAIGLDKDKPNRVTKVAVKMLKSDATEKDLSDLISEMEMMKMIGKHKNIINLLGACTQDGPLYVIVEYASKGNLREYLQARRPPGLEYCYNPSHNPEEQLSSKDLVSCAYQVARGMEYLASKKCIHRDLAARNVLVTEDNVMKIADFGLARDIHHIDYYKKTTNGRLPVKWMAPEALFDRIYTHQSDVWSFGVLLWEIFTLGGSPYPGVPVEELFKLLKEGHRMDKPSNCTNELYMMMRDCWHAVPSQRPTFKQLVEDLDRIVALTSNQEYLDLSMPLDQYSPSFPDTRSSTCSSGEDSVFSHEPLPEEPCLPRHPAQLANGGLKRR
T3 sequence (P11362 22-822): as above
T1 sequence (P21802 22-821): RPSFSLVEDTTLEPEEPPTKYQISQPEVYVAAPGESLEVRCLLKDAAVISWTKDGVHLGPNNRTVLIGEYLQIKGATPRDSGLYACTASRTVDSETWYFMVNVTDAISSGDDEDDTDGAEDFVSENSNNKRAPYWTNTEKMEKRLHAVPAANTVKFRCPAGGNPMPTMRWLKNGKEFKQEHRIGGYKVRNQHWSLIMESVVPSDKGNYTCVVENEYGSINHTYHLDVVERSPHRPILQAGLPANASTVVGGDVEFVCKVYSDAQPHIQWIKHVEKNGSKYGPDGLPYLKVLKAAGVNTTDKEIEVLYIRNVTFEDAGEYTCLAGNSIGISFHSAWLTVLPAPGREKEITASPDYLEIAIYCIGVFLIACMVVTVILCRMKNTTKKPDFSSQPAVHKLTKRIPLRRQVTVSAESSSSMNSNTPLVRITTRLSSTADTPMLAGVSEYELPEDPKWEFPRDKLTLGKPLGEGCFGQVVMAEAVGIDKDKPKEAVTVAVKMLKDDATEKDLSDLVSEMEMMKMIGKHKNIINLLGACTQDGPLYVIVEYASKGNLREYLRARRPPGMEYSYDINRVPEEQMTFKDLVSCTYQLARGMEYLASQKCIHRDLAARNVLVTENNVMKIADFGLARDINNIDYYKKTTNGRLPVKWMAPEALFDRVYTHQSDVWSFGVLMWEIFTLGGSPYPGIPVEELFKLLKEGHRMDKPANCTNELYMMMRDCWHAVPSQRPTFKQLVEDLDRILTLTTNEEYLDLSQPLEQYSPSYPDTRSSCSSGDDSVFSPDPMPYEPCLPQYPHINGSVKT
T2 sequence (P22607 23-808 isoform P22607-2 limits assumed): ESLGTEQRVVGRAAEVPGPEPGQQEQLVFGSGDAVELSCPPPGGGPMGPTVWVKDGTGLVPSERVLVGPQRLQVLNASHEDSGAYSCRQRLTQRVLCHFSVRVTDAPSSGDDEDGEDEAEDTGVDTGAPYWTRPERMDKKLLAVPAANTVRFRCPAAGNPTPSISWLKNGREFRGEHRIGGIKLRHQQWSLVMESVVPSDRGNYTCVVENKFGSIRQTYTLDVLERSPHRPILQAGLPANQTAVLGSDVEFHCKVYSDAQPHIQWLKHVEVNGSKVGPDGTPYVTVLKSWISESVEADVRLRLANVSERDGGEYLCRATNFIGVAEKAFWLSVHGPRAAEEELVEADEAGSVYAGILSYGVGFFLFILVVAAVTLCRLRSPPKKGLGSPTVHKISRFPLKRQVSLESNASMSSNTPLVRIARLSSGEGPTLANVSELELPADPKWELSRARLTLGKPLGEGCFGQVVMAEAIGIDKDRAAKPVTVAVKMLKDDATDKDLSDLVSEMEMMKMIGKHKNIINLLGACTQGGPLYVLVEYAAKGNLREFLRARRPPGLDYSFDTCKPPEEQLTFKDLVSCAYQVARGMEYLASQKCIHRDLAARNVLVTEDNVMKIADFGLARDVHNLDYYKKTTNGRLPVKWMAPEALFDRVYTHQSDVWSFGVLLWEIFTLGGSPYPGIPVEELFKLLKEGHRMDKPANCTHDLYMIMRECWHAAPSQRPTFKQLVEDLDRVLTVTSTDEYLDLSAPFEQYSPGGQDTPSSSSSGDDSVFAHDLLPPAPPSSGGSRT
T4 sequence (P21802 22-822 isoform P21802-3 limits assumed): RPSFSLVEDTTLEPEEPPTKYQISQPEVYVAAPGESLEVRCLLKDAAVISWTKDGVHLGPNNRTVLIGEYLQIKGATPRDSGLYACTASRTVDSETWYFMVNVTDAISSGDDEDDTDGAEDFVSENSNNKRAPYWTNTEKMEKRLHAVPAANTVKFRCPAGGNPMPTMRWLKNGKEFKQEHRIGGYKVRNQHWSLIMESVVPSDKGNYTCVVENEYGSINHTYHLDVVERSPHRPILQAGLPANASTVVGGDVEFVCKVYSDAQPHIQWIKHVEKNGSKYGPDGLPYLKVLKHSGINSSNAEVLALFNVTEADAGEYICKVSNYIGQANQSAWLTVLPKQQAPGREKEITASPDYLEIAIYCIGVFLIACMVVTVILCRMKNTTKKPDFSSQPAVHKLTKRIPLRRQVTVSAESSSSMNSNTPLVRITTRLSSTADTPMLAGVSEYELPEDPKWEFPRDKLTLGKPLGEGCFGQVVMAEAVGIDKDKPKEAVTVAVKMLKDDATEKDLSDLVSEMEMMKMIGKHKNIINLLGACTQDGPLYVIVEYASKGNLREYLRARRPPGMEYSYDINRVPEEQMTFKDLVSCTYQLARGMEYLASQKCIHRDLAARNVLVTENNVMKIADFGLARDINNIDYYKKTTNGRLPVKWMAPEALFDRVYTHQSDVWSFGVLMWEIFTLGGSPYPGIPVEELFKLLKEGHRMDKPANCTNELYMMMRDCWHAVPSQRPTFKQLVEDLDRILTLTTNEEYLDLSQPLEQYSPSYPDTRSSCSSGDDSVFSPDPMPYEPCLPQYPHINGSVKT

B1: FR1-H7: human monoclonal antibody from phage Fab library, specific for FGFR-1(IIIb) and/or FGFR-1(IIIc), and/or FGFR-4(IIIc); VH/VL SEQ ID NOS:7, 8 (antibody, listed as Homo sapiens)
VH: MAEVQLVQSGAEVKKPGASVKVSCKVSGYTFTDYYMHWVQQAPGKGLEWMGLVDPEDGETIYAEKFQGRVTITADTSTDTAYMELSSLRSEDTAVYYCARDDYMDVWGKGTLVTVSSASTKGP
VL: LETTLTQSPDTLSLSPGEGATLSCRASQSVSGSALAWYQQKPGQAPRLLIYDASSRATGVPDRFSGSGSGADFSLTISRLEPEDFAVYSCQQYGSSPLTFGPGTKVDVKRTVAAPSVFIFPPSDEQLKSGTASVVCLLNNFYPREAKVQWKVD
Kd [1]: > 1 µM | food intakes ([2]; 7-day period): gradual reduction | weight reduction of the total body weight ([2]; Day 7): approximately 10% | weight of intrascapular brown fat tissue ([2]; day 7): significant reduction | weights of epididymal white adipose tissue and inguinal subcutaneous white adipose tissue ([2]; day 7): changed little | Kd [3]: > 1 µM | inhibition of ligand (FGF) mediated receptor phosphorylation ([4]; antibody): significantly inhibits | receptor activation by the antibody by itself ([4]; no ligand): does not activate the receptor | weight reduction compared to the starting weights ([5]; 0.8 mg/kg): approximately 5% | weight reduction compared to the starting weights ([5]; 4 mg/kg): ~16% | weight reduction compared to the starting weights ([5]; 40 mg/kg): ~16% | body weight, food intake, muscle and fat mass, energy expenditure and Respiratory Exchange Ratio (RER) compared to the controls ([6]; 10 mg/kg i.p. Day 2 and Day 4, food ad libitum): decreases | weight loss versus pair-fed control antibody treated animals ([6]; 10 mg/kg i.p., paired-feeding, 5-day period): identical weight-loss trajectories | Kd [7]: > 1 µM | binding to FGFR-1(IIIc) [8]: strong affinities | blocking of specific 125I-FGF-2 binding to the cells [9]: near completion
